Reference: patent US10995116B2, “Peptide-induced NK cell activation” (University of Southampton, priority 2014, dated 2021)
Where two headings read alike, the source gives them in different places.

What was measured:
HLA-Cw*0102 [1] = target: T1, HLA-Cw*0102 (Homo sapiens, UniProt P10321, A176E/A330V/A35S/A97T/C350S/D114A/D33F/L171W/L180R/L218V/M285V/M309V/M331V/P208H/Q277E/Q291P/R121W/R243W/R30K/S123C/S140Y/S297R/T329A/T363A/V272M/V319A); details: control peptide, stated as known; cited from earlier work
KIR2DS2 [2] = target: T2, KIR2DS2 (Homo sapiens, UniProt P43631); test: pVav1/Vav1 Western blot, KIR2DS2-transfected NK cell line plus peptide-loaded HLA-C*0304:ICP47:721.221 cells; assay type: cell-based; set-up: expressed in transfected cells; host or cells: NKL cell line transfected with KIR2DS2; target cells L721.221-HLA-C*0304-ICP47; details: peptide 20 μM, 5 minutes
Method: FIG. 7 1×10^6 L721.221-HLA-C*0304-ICP47 cells were incubated overnight at 26° C. with indicated peptides at a concentration of 20 μM. The cells were then incubated with the NKL cell line transfected with KIR2DS2 or transfected with KIR2DL2 for 5 minutes. The cells were lysed in 1% NP-40 and then analysed by Western blotting using antibodies to pVav1 and then following stripping of the membrane to Vav1. Shown are Western blots around the 98 kDa region, and below them the corresponding densitometries for 2 independent experiments.
With reference to FIG. 7, 1×10^6 HLA-C*0304:ICP47:721.221 cells were incubated overnight at 26° C. with indicated peptides at a concentration of 20 μM. The cells were then incubated with the NK cell line transfected with KIR2DS2 for 5 minutes. The cells were lysed in 1% NP-40 and then analysed by Western blotting using antibodies to pVav1 and then following stripping of the membrane to Vav1. Shown is a Western blots around the 98kDa region, and below them the corresponding densitometries for 3 independent experiments.
Target sequence in this assay (P43631 22-304): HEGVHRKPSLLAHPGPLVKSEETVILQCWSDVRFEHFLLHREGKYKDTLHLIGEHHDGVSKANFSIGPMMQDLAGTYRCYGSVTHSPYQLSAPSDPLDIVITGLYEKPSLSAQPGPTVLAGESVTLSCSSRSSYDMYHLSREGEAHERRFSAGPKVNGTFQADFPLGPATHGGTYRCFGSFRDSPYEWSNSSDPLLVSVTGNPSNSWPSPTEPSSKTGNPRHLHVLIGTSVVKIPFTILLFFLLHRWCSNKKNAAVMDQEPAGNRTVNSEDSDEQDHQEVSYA

[3] = system: NK cells from KIR2DS2-positive or KIR2DS2-negative donor; test: CD107a (LAMP) degranulation of CH-L antibody positive NK cells cultured with peptide-loaded L721.174 cells; assay type: cell-based
Method: A. cells were incubated in the presence or absence of peptides, and then cultured with NK cells from either a KIR2DS2-positive or KIR2DS2-negative donor. The level of CD107a (LAMP) expression was measured on NK cells positive for the CH-L antibody. This antibody binds to KIR2DS2, KIR2DL2 and KIR2DL3. B. Summary data from 5 KIR2DS2-positive and 6 KIR2DS2-negative donors tested as per panel A of FIG. 2. To compare the different donors the data are normalized to 100% for the no peptide condition.
With reference to FIG. 2A, 3×10^5 L721.174 cells were incubated at 26° C. overnight in the presence or absence of peptides, and then cultured for four hours with NK cells from either a KIR2DS2-positive or KIR2DS2-negative donor. The level of CD107a (LAMP) expression was measured on NK cells positive for the CH-L antibody. This antibody binds to KIR2DS2, KIR2DL2 and KIR2DL3. […] With reference to FIG. 2B, summary data from 5 KIR2DS2-positive and 6 KIR2DS2-negative donors were tested as per panel A of FIG. 2. To compare the different donors the data are normalized to 100% for the no peptide condition.

HLA-Cw*0102 [4] = target: T1, HLA-Cw*0102; test: Peptide binding to HLA-Cw*0102: cell surface MHC class I staining of L721.174 cells by flow cytometry; assay type: cell-based; details: increasing peptide concentrations, overnight at 26° C.
Method: (§1) The HLA-Cw*0102-positive cell line L721.174 was incubated with increasing concentrations of the LNPSVAATL (SEQ ID NO: 1) peptide or a control peptide VAPWNSLSL (SEQ ID NO: 48). Cells were stained for cell surface of MHC class I and analysed by flow cytometry. The mean fluorescence intensity of cell surface MHC Class I was plotted against the peptide concentration.
as §1, with “With reference to FIG. 1, the HLA-Cw*0102-positive” for “The HLA-Cw*0102-positive”, “NO: 48) (known to bind HLA-Cw*0102) overnight at 26° C. 3×10^5 cells were used per condition. Following washing in PBS the cells” for “NO: 48). Cells”

DAP12 = DAP12 phosphorylation: KIR2DS2 immunoprecipitation and phosphotyrosine Western blot, NK cell line transfected with KIR2DS2 plus peptide-loaded L721.174 cells; assay type: cell-based; details: peptide 20 μM, 5 minutes
Method: (§2) FIG. 6 LNPSVAATL (SEQ ID NO: 1) activates NK cells expressing KIR2DS2. A. L721.174 cells were incubated with indicated peptides. The cells were then incubated with the NK cell line transfected with KIR2DS2. The cells were lysed and the KIR2DS2 was then immunoprecipitated from the mixture using the GL183 antibody coupled to protein-G beads. The immune precipitate was analysed by Western blotting using a phosphotyrosine antibody. The membrane was then stripped and reprobed with an antibody to DAP12 the molecule that transduces a positive signal from KIR2DS2. Shown are the regions on the blots at the level of DAP12 (12-15kDa). B. L721.174 cells were incubated with indicated peptides. The cells were then incubated with the NK cell line transfected with KIR2DS2 or transfected with KIR2DL2. The cells were lysed in 1% NP-40 and then analysed by Western blotting using antibodies to pVav1 and then following stripping of the membrane to Vav1. […]
(§3) With reference to FIG. 6A, 1×10^6 L721.174 cells were incubated overnight at 26° C. with indicated peptides at a concentration of 20 μM. […] The immune precipitate was analysed by Western blotting using a phosphotyrosine antibody. […] The cells were lysed in 1% NP-40 and then analysed by Western blotting using antibodies to pVav1 and then following stripping of the membrane to Vav1. […]

L721.174 cells = test: Cytotoxicity of NK cell clones against peptide-loaded L721.174 cells (Live/Dead fixable far-red stain); assay type: cell-based; details: KIR2DS2-positive NK cell clones 4, 6, 9 only; not KIR2DS2-negative clone 27
Method: (§4) L721.174 cells were incubated in the presence or absence of the peptides VAPWNSFAL (SEQ ID NO: 49) and the LNPSVAATL (SEQ ID NO: 1). The cells were then labeled with the cell tracker orange dye, and then cultured with KIR2DS2-positive NK cell clones (clones 4,6,9) or a KIR2DS2-negative NK cell clone (clone 27). Cytotoxicity was then determined using Live/Dead® fixable far-red stain.
as §4, with “With reference to FIG. 3, 3×10^5 L721.174” for “L721.174”, “incubated at 26° C. overnight” for “incubated”, “cultured for four hours” for “cultured”

[5] = system: NK cells expressing KIR2DS2; test: pVav1/Vav1 Western blot, NK cell line transfected with KIR2DS2 or KIR2DL2 plus peptide-loaded L721.174 cells; assay type: cell-based; details: peptide 20 μM, 5 minutes
Method: as §2, §3

HLA-C*0102 = HLA-C*0102 (Homo sapiens, UniProt P10321, A176E/A330V/A35S/A97T/C350S/D114A/D33F/L171W/L180R/L218V/M285V/M309V/M331V/P208H/Q277E/Q291P/R121W/R243W/R30K/S123C/S140Y/S297R/T329A/T363A/V272M/V319A); test: HPLC of HLA-C binding peptides eluted from 721.221 cells expressing HLA-C*0102:T2A:E19/3K:LNPSVAATL; details: peak in the eluate at the retention time of the control peptide
Method: FIG. 8 The MHC class I-negative 721.221 cell line was transfected with a construct expressing HLA-C*0102:T2A:E19/3K:LNPSVAATL (SEQ ID NO: 1). The cells were washed and then the HLA-C binding peptides eluted using 10% acetic acid. The eluate was analysed by HPLC using a C18 column and a 4-60% acetonitrile gradient. The resulting profile was compared to the profile of the LNPSVAATL (SEQ ID NO: 1) peptide alone. The peptide elution peak is indicated with an arrow.
The cell line 721.221 expressing HLA-C*0102:T2A:E19/3K:LNPSVAATL. Following elution of the HLA-C binding peptides using 10% acetic acid the peptides were analysed by HPLC using a C18 column and an acetonitrile gradient.

KIR2DS2 [6] = target: T2, KIR2DS2; test: KIR2DS2-PE tetramer staining of peptide-loaded L721.174 cells by flow cytometry; assay type: binding; set-up: made in house; details: peptide 200 μM overnight at 26° C.
Method: (SEQ ID NO: 1) peptide. A. The KIR2DS2 protein was expressed with a biotinylation C-terminal tag. Following biotinylation with the BirA enzyme, the KIR2DS2 protein was incubated with streptavidin-phycoerythrin to form fluorescent KIR2DS2-tetramers (KIR2DS2-PE). L721.174 cells were then incubated with indicated peptides. Cells were then stained with KIR2DS2-PE and analysed by flow cytometry. Shown are histogram plots. The bold numbers represent the mean fluorescent staining intensity of the KIR2DS2-PE staining of the cells in the presence of peptide and the non-bold numbers the staining in the absence of peptide. B. Represents the mean and standard error fluorescent intensities of the experiment in “A” following replicate experiments.
A. L721.174 cells were incubated with indicated peptides. Cells were then stained with KIR2DS2-PE (see FIG. 4) and analysed by flow cytometry. Shown are histogram plots. […]
With reference to FIG. 4A, the KIR2DS2 protein was expressed as a recombinant protein with a biotinylation C-terminal tag. […] Cells were then stained with KIR2DS2-PE and analysed by flow cytometry. […]
With reference to FIG. 5A, 3×10^5 L721.174 cells were incubated overnight at 26° C. with indicated peptides at a concentration of 200 μM. Cells were then stained with KIR2DS2-PE (see FIG. 4) and analysed by flow cytometry. […]
Target sequence in this assay (P43631 22-245 limits assumed): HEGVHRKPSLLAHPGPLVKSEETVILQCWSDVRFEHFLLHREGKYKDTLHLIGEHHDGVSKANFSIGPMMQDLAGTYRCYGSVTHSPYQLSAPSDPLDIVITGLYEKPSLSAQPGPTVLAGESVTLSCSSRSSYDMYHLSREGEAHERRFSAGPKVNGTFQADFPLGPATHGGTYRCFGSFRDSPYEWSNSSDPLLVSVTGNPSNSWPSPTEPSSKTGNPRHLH

Sequence: VAPWNSLSL (listed as Homo sapiens)
- binding to HLA-Cw*0102 (HLA-Cw*0102 [1]): known to bind

Sequence: GAVPDLATL (listed as Homo sapiens)
- activation of KIR2DS2 (pVav1) (KIR2DS2 [2]): Activated

Sequence: VAPWNSFAL (listed as Homo sapiens) [reference compound]
- level of CD107a degranulation as compared to no peptide ([3]; NK cells from both donors (KIR2DS2-positive and KIR2DS2-negative)): lower levels of degranulation

Sequence: GAVPDLAWL (listed as Homo sapiens)
- activation of KIR2DS2 (pVav1) (KIR2DS2 [2]): Activated

Sequence: LNPSVAATL (listed as Homo sapiens)
- binding to HLA-Cw*0102 (HLA-Cw*0102 [4]): Binds
- phosphorylation of DAP12 (DAP12): induces phosphorylation of DAP12
- killing of L721.174 cells as compared to no peptide or the VAPWNSFAL peptide (L721.174 cells): killed the L721.174 cell line to greater extent
- level of CD107a degranulation as compared to no peptide ([3]; NK cells from KIR2DS2-positive donors): higher levels of degranulation
- level of CD107a degranulation as compared to the VAPWNSFAL peptide alone ([3]; NK cells from KIR2DS2-positive donors, LNPSVAATL in combination with VAPWNSFAL): higher levels of degranulation
- activation of NK cells expressing KIR2DS2 [5]: Activates
- endogenous processing and presentation from construct (HLA-C*0102): endogenously processed and presented
- KIR2DS2 binding to HLA-C*0102 and peptide (KIR2DS2-PE staining) (KIR2DS2 [6]): Binds
